This note sets out measurements from IntAct's records for PubMed 29892012.

To fix the notation:
B1: Enhancer of mRNA-decapping protein 3 (Homo sapiens), Q96F86 (parent)
chain: MATDWLGSIVSINCGDSLGVYQGRVSAVDQVSQTISLTRPFHNGVKCLVPEVTFRAGDITELKILEIPGPGDNQHFGDLHQTELGPSGAGCQVGINQNGTGKFVKKPASSSSAPQNIPKRTDVKSQDVAVSPQQQQCSKSYVDRHMESLSQSKSFRRRHNSWSSSSRHPNQATPKKSGLKNGQMKNKDDECFGDDIEEIPDTDFDFEGNLALFDKAAVFEEIDTYERRSGTRSRGIPNERPTRYRHDENILESEPIVYRRIIVPHNVSKEFCTDSGLVVPSISYELHKKLLSVAEKHGLTLERRLEMTGVCASQMALTLLGGPNRLNPKNVHQRPTVALLCGPHVKGAQGISCGRHLANHDVQVILFLPNFVKMLESITNELSLFSKTQGQQVSSLKDLPTSPVDLVINCLDCPENVFLRDQPWYKAAVAWANQNRAPVLSIDPPVHEVEQGIDAKWSLALGLPLPLGEHAGRIYLCDIGIPQQVFQEVGINYHSPFGCKFVIPLHSA
partner: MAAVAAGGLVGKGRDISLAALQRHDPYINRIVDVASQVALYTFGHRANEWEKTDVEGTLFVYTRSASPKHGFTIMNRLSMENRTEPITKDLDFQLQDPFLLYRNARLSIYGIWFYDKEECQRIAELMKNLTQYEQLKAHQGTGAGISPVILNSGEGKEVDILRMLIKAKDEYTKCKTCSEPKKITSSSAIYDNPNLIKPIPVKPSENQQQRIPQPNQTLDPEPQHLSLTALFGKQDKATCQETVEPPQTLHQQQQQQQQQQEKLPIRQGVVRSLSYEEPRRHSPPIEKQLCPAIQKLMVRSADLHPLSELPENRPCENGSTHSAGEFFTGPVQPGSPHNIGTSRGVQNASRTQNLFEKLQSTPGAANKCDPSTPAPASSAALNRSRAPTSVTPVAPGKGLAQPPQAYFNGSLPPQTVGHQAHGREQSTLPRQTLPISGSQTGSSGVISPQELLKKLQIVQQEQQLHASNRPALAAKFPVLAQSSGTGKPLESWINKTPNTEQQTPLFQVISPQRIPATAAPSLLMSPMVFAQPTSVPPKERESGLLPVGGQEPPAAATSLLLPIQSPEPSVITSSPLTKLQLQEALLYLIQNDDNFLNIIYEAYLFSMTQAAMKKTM
B2: Retinoic acid receptor alpha (Homo sapiens), P10276 (parent)
chain: MASNSSSCPTPGGGHLNGYPVPPYAFFFPPMLGGLSPPGALTTLQHQLPVSGYSTPSPATIETQSSSSEEIVPSPPSPPPLPRIYKPCFVCQDKSSGYHYGVSACEGCKGFFRRSIQKNMVYTCHRDKNCIINKVTRNRCQYCRLQKCFEVGMSKESVRNDRNKKKKEVPKPECSESYTLTPEVGELIEKVRKAHQETFPALCQLGKYTTNNSSEQRVSLDIDLWDKFSELSTKCIIKTVEFAKQLPGFTTLTIADQITLLKAACLDILILRICTRYTPEQDTMTFSDGLTLNRTQMHNAGFGPLTDLVFAFANQLLPLEMDDAETGLLSAICLICGDRQDLEQPDRVDMLQEPLLEALKVYVRKRRPSRPHMFPKMLMKITDLRSISAKGAERVITLKMEIPGSMPPLIQEMLENSEGLDTLSGQPGGGGRDGGGLAPPPGSCSPSLSPSSNRSSPATHSP
partner: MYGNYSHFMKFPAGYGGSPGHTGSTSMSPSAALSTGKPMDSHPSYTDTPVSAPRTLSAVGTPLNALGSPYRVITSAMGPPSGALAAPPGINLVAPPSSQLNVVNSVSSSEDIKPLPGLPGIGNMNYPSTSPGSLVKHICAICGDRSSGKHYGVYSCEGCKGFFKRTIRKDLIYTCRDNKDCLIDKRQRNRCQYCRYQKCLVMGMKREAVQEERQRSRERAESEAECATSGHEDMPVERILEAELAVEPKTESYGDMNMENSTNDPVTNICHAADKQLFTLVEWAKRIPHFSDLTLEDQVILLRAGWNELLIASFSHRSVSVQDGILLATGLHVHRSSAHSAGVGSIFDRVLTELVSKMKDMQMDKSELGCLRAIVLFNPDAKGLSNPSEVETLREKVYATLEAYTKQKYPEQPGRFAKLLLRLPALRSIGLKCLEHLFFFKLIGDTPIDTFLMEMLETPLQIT
B3: Inositol polyphosphate 5-phosphatase K (Homo sapiens), Q9BT40 (parent)
chain: MSSRKLSGPKGRRLSIHVVTWNVASAAPPLDLSDLLQLNNRNLNLDIYVIGLQELNSGIISLLSDAAFNDSWSSFLMDVLSPLSFIKVSHVRMQGILLLVFAKYQHLPYIQILSTKSTPTGLFGYWGNKGGVNICLKLYGYYVSIINCHLPPHISNNYQRLEHFDRILEMQNCEGRDIPNILDHDLIIWFGDMNFRIEDFGLHFVRESIKNRCYGGLWEKDQLSIAKKHDPLLREFQEGRLLFPPTYKFDRNSNDYDTSEKKRKPAWTDRILWRLKRQPCAGPDTPIPPASHFSLSLRGYSSHMTYGISDHKPVSGTFDLELKPLVSAPLIVLMPEDLWTVENDMMVSYSSTSDFPSSPWDWIGLYKVGLRDVNDYVSYAWVGDSKVSCSDNLNQVYIDISNIPTTEDEFLLCYYSNSLRSVVGISRPFQIPPGSLREDPLGEAQPQI
partner: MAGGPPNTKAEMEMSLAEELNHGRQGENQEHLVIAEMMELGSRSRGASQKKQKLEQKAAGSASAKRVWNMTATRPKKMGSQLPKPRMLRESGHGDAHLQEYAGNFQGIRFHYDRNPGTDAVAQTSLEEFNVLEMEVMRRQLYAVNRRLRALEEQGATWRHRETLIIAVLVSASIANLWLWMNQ
B4: Inositol polyphosphate 5-phosphatase K (Homo sapiens), Q9BT40 (parent)
chain: B3 chain
partner: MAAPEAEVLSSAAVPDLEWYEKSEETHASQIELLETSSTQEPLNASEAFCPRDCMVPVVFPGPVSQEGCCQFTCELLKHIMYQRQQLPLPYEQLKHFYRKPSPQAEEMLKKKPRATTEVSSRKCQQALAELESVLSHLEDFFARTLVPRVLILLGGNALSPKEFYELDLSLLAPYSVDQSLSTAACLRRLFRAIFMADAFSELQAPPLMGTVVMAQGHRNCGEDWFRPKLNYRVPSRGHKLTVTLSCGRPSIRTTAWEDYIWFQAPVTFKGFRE

Variants of B1 are the subject of the first assay. To be noted: with dcp1b_human DCP1B.
For MATDWLGSIVSINCGDSLGVYQGRVSAVDQVSQTISLTRPFHNGVKCLVPEVTFRAGDITELKILEIPGPGDNQHFGDLHQTELGPSGAGCQVGINQNGTGKFVKKPASSSSAPQNIPKRTDVKSQDVAVSPQQQQCSKSYVDRHMESLSQSKSFRRRHNSWSSSSRHPNQATPKKSGLKNGQMKNKDDECFGDDIEEIPDTDFDFEGNLALLDKAAVFEEIDTYERRSGTRSRGIPNERPTRYRHDENILESEPIVYRRIIVPHNVSKEFCTDSGLVVPSISYELHKKLLSVAEKHGLTLERRLEMTGVCASQMALTLLGGPNRLNPKNVHQRPTVALLCGPHVKGAQGISCGRHLANHDVQVILFLPNFVKMLESITNELSLFSKTQGQQVSSLKDLPTSPVDLVINCLDCPENVFLRDQPWYKAAVAWANQNRAPVLSIDPPVHEVEQGIDAKWSLALGLPLPLGEHAGRIYLCDIGIPQQVFQEVGINYHSPFGCKFVIPLHSA [F213L], the “effect of a mutation on the interaction” value is reported as “with no effect”.

Variants of B2 are the subject of the next assay. To be noted: with rxrg_human RXRG.
As to MASNSSSCPTPGGGHLNGYPVPPYAFFFPPMLGGLSPPGALTTLQHQLPVSGYSTPSPATIETQSSSSEEIVPSPPSPPPLPHIYKPCFVCQDKSSGYHYGVSACEGCKGFFRRSIQKNMVYTCHRDKNCIINKVTRNRCQYCRLQKCFEVGMSKESVRNDRNKKKKEVPKPECSESYTLTPEVGELIEKVRKAHQETFPALCQLGKYTTNNSSEQRVSLDIDLWDKFSELSTKCIIKTVEFAKQLPGFTTLTIADQITLLKAACLDILILRICTRYTPEQDTMTFSDGLTLNRTQMHNAGFGPLTDLVFAFANQLLPLEMDDAETGLLSAICLICGDRQDLEQPDRVDMLQEPLLEALKVYVRKRRPSRPHMFPKMLMKITDLRSISAKGAERVITLKMEIPGSMPPLIQEMLENSEGLDTLSGQPGGGGRDGGGLAPPPGSCSPSLSPSSNRSSPATHSP [R83H], the “effect of a mutation on the interaction” value is “with no effect”.

Another assay covers variants of B2. To be noted: with rxrg_human RXRG. This is another data set of the same source.
In the case of MASNSSSCPTPGGGHLNGYPVPPYAFFFPPMLGGLSPPGALTTLQHQLPVSGYSTPSPATIETQSSSSEEIVPSPPSPPPLPRIYKPCFVCQDKSSGYHYGVSACEGCKGFFRRSIQKNMVYTCHRDKNCIINKVTRNRCQYCRLQKCFEVGMSKESVRNDRNKKKKEVPKPECSESYTLTPEVGELIEKVRKAHQETFPALCQLGKYTTNNSSEQRVSLDIDLWDKFSELSTKCIIKTVEFAKQLPGFTTLTIADQITLLKAACLDILILRICTRYTPEQDTMTFSDGLTLNRTQMHNAGFGPLTDLVFAFANQLLPLEMDDAETGLLSAICLICGDRQDLEQPDRVDMLQEPLLEALKVYVRKRRPSRPHMFLKMLMKITDLRSISAKGAERVITLKMEIPGSMPPLIQEMLENSEGLDTLSGQPGGGGRDGGGLAPPPGSCSPSLSPSSNRSSPATHSP [P375L], the “effect of a mutation on the interaction” value is “disrupting interaction strength”.

A further assay covers variants of B3. To be noted: with fate1_human FATE1, Q969F0.
MSSRKLSGPKGRRLSIHVVTWNVASAAPPLDLSDLLQLNNRNLNLDIYVIGLQELNSGIISLLSDAAFNDSWSSFLMDVLSPLSFIKVSHVRMQGILLLVFAKYQHLPYIQILSTKSTPTGLFGYWGNKGGVNICLKLYGYYVSIINCHLPPHISNNYQRLEHFDRILEMQNCEGRDIPNILDHDLIIWFGDMNFRIEDFGLHFVRESIKNRCYGGLWEKDQLSIAKKHDPLLREFQEGRLLFPPTYKFDRNSNDYDTSEKKRKPAWTDRILWRLKRQPCAGPDTPIPPASHFSLSLRGYSSHMTYGISDHKPVSGTFDLELKPLVSAPLIVLMPEDLWTVENDMMVSYSSTSDFPSSPWDWIGLYKVGLRDVNDYVSYAWVGDSKVSCSDNLNQVYIDISNIPTTEDEFLLCYYSNSLRSVVGISRPFQIPPGSLKEDPLGEAQPQI [R437K]: the “effect of a mutation on the interaction” value was “disrupting interaction strength”.

In the next assay the parent is B4. To be noted: with md2bp_human MAD2L1BP.
For MSSRKLSGPKGRRLSIHVVTWNVASAAPPLDLSDLLQLNNRNLNLDIYVIGLQELNSGIISLLSDAAFNDSWSSFLMDVLSPLSFIKVSHVRMQGILLLVFAKYQHLPYIQILSTKSTPTGLFGYWGNKGGVNICLKLYGYYVSIINCHLPPHISNNYQRLEHFDRILEMQNCEGRDIPNILDHDLIIWFGDMNFRIEDFGLHFVRESIKNRCYGGLWEKDQLSIAKKHDPLLREFQEGRLLFPPTYKFDRNSNDYDTSEKKRKPAWTDRILWRLKRQPCAGPDTPIPPASHFSLSLRGYSSHMTYGISDHKPVSGTFDLELKPLVSAPLIVLMPEDLWTVENDMMVSYSSTSDFPSSPWDWIGLYKVGLRDVNDYVSYAWVGDSKVSCSDNLNQVYIDISNIPTTEDEFLLCYYSNSLRSVVGISRPFQIPPGSLKEDPLGEAQPQI [R437K], the “effect of a mutation on the interaction” value is listed as “disrupting interaction strength”.
